Data reported in the nanobody polyreactivity screen of Harvey et al. (2022).

Assay: yeast display, Sf9 membrane polyspecificity reagent, FACS + sequencing; frameworks hold sequencing errors
Procedure, shortened: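 Polyreactivity labels are assigned by the sorting gate from which each nanobody was recovered. The gates were low and high (top ~1%), set on anti-HA fluorescence for expression and streptavidin fluorescence for reagent binding. Before sorting, galactose-induced (36–48 hours) yeast display cells were stained for 1 hour at 4 °C with 10% biotinylated, detergent-solubilized Sf9 membrane reagent.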

Sequence	polyreactivity (PSR sort gate)
QVQLVESGGGLVQAGGSLRLSCAASGITFYVYAMGWYIPAPGKERELVAAINYDSGSTYYADSVKGRFTISRDNAKNTVYLQMNSLKPEDTAVYYCATDGVNPFYAYDYWGQGTQVTVSS	low polyreactivity
QVQLVESGGGLVQAGGSLRLSCAASGITFYVYAMGWYRQAPGKERELVAAISSGSSTYYADSVKGRFTISRDNAKNTVYLQMNSLKPEDTAVYYCAARYRKYLSEYWGQGTQVTVSS	high polyreactivity
QVQLVESGGGLVQAGGSLRLSCAASGITFYVYAMGWYRQAPGKERELVAAISSGSSTYYSDSVKGRFTISRDNAKNTVYLQMNSLKPEDTAVYYCAARYRKYLSEYWGQGTQVTVSS	high polyreactivity
QVQLVESGGGLVQAGGSLRLSCAASGITFYWYAMGWYRQAPGKERELVASITGNGGGTSYADSVKGRFTISRDNAKNTVYLQMNSLKPEDTAVYYCNTSVGGKEYDSWGQGTQVTVSS	low polyreactivity
QVQLVESGGGLVQAGGSLRLSCAASGITFYYYAMGWYRQAPGKERELVAAISFRGGSTYYADSVKGRFTISRDNAKNTVYLQMNSLKPEDTAVYYCAAETSPSWYTWVTYDYWGQGTKVTVSS	high polyreactivity
QVQLVESGGGLVQAGGSLRLSCAASGITIGRNTMGWSRQAPRKERELVAAIDSGGNTYADSVKGRFSISRDNAMNTVYLQMNSLKPEDTAVYYCAVDGGEFSSYGFWGQGTQVTVSS	low polyreactivity
QVQLVESGGGLVQAGGSLRLSCAASGITINGYVMGWYRQAPGKERELVAAITSGARTYYADSVKGRFTISRDNAKNTVYLQMNSLKPEDTAVYYCAASIWLYRYYYWGQGTQVTVSS	high polyreactivity
QVQLVESGGGLVQAGGSLRLSCAASGITIVNYVMGWYRQAPGKERELVAAISIGGGTYYADSVKGRFTISRDNAKNTVYLQINSLKPEDTAVYYCNASYGGLSFYIGVYVTGYDYWGQGTQVTVSS	low polyreactivity
QVQLVESGGGLVQAGGSLRLSCAASGITIVRNAMGWYRQAPGKERELVAAISSGGSTYYADSVKGRFTISRDNAKISVYLQMNSLKPEDTAVYYCAAVPEYYEYSPYDYWGQGTQVTVSS	low polyreactivity
QVQLVESGGGLVQAGGSLRLSCAASGITIVRYAMGWSRQAPGKERELVAAINRSGGSTYYADSVKGRFTISRDNAKNTVYLQMNSLKPEDTAVYYCAARLYGKYDPPGYYYWGQGTQVTVSS	high polyreactivity
QVQLVESGGGLVQAGGSLRLSCAASGITIYEYAMGWYRQAPGKERELVAAITSGGTTNYADSVKGRFTISRDNAKNTVYLQMNSLKPEDTAVYYCAKDGGEGYDYWGQGTQVTVSS	low polyreactivity
QVQLVESGGGLVQAGGSLRLSCAASGITIYGYAMGWYRQAPGKERELVAAISFRSGSTYYADSVKGRFTISRDNAKNTVYLQMNSLKPEDTAVYYCATDRYYRDDYWGQGTQVTVSS	low polyreactivity
QVQLVESGGGLVQAGGSLRLSCAASGITIYRNAMGWYRQAPGKEMELVAAITRNGGRTYYADSVKGRFTISRDNAKNTVYLQMNSLKPEDTAVDYCAADSGTRNLASYRYYYWGQGTQVTVSS	high polyreactivity
QVQLVESGGGLVQAGGSLRLSCAASGITIYWYAMGWYRQAPGKERELVAAITRSVGSTYYADSVKGRFTISRDNAKNTVYLQMNSLKPEDTAVYYCAADFYYYGFDYWGQGTQVTVSS	low polyreactivity
QVQLVESGGGLVQAGGSLRLSCAASGITLFHYVMGWYRQAPGKERELVADITWRGGNTFYADSVKGRFTISRDNAKNTVYLQMNSLKPEDTAVYYCAVRQAYRTRDYDYWGQGTQVTVSS	high polyreactivity
QVQLVESGGGLVQAGGSLRLSCAASGITLGAYAMGWYRQAPGKERELVARIRIGGSTYYADSVKGRFTISRDNAKNTVYLQMNSLKPEDTAVYYCNRDFWYGVATGREFYLYDYWGQGTQVTVSS	low polyreactivity
QVQLVESGGGLVQAGGSLRLSCAASGITLGYSAMGGYRQAPGKEREFVAGITTSGGTTYYADSVKGRFTISRDNAKNTVYLQMNSLKPEDTAVYYCAVYGGVKRGSFYYWGQGTQVTVSS	low polyreactivity
QVQLVESGGGLVQAGGSLRLSCAASGITLKYYAIGWYIQAPGKERELVAAITRSGVGTYYADSVKGRFTISRDNAKNTVYLQMNSLKPEDTAVYYCAAASYQSRYWNYYWGQGTQVTVSS	high polyreactivity
QVQLVESGGGLVQAGGSLRLSCAASGITLNGYVMGWYRQAPGKEREFVAVISSRGGSTYYADSVKGRFTISRDNAKNTVYLQMNSLKPEDTAVYYCAARWGYSRRGYRGYDYWGQGTQVTVSS	high polyreactivity
QVQLVESGGGLVQAGGSLRLSCAASGITLNRNAMGWYRQAPGKERELVARISRRGGTTYYADSVKGRFSISRDNAKNTVYLQMNSLKPEDTAVYYCNAGPYGGNPFDYWGQGTQVTVSS	high polyreactivity
QVQLVESGGGLVQAGGSLRLSCAASGITLSIYAMGWYRQAPGKERELVAAIDWSDGSTYYADSVKGRFTISRDNAKNTVYLQMNSLKPEDTAVYYCAAEYHWSYWWPTDDYWGQGTQVTVSS	high polyreactivity
QVQLVESGGGLVQAGGSLRLSCAASGITLSVYAMGWYRQAPRKERELVASISSGGTSTYYADSVKGRFTISRDNAKNTVYLLMISLKPEDTAVYYCAAYSYYTGDQYSYDYWGQGTQVTVSS	low polyreactivity
